In data set [1] the target is T1, prodystroglycan (DAG1_(28-340)) (Homo sapiens, UniProt Q14118 28-340, R311A | R312A).
T1 sequence: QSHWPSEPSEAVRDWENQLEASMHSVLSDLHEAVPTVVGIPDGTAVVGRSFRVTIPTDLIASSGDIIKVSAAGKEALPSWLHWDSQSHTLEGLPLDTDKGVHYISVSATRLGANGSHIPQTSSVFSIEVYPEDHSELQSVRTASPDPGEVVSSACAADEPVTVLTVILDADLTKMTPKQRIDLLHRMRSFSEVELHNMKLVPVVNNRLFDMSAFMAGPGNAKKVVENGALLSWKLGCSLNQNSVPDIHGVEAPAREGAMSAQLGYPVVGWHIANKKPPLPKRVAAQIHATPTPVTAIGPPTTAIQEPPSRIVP
In words: MST.

Data set [2] deals with the molecule itself. Briefly: SEC-MALS; Superdex 200 Increase 10/300 GL, 20 mM HEPES pH 7.4, 150 mM NaCl, samples 4-8 mg/mL, on line with SAXS.

We go through 1 molecule from publication PMC12514197, “LARGE1 processively polymerizes length-controlled matriglycan on prodystroglycan” (Nature Communications, 2025).

B1: LARGE1dTM (enzyme)
chain: FEDGKPVSLSPLESQAHSPRYTASSQRERESLEVRMREVEEENRALRRQLSLAQGRAPSHRRGNHSKTYSMEEGTGDSENLRAGIVAGNSSECGQQPVVEKCETIHVAIVCAGYNASRDVVTLVKSVLFHRRNPLHFHLIADSIAEQILATLFQTWMVPAVRVDFYNADELKSEVSWIPNKHYSGIYGLMKLVLTKTLPANLERVIVLDTDITFATDIAELWAVFHKFKGQQVLGLVENQSDWYLGNLWKNHRPWPALGRGYNTGVILLLLDKLRKMKWEQMWRLTAERELMGMLSTSLADQDIFNAVIKQNPFLVYQLPCFWNVQLSDHTRSEQCYRDVSDLKVIHWNSPKKLRVKNKHVEFFRNLYLTFLEYDGNLLRRELFGCPSEADVNSENLQKQLSELDEDDLCYEFRRERFTVHRTHLYFLHYEYEPAADSTDVTLVAQLSMDRLQMLEAICKHWEGPISLALYLSDAEAQQFLRYAQGSEVLMSRHNVGYHIVYKEGQFYPVNLLRNVAMKHISTPYMFLSDIDFLPMYGLYEYLRKSVIQLDLANTKKAMIVPAFETLRYRLSFPKSKAELLSMLDMGTLFTFRYHVWTKGHAPTNFAKWRTATTPYRVEWEADFEPYVVVRRDCPEYDRRFVGFGWNKVAHIMELDVQEYEFIVLPNAYMIHMPHAPSFDITKFRSNKQYRICLKTLKEEFQQDMSRRYGFAALKYLTAENNS
modifications: N-glycans; NHS-red label in the microscale thermophoresis experiments
notes: LARGE1 lacking the transmembrane domain; soluble secreted construct; Homodimer by cryo-EM and SEC-MALS; also called Like-acetylglucosaminyltransferase-1; apo-LARGE1dTM; source: HEK293-F, stably transfected, secreted, purified (TALON resin)
For the molecule B1, the Kd in data set [1] was around 180 nM. Besides, the “stoichiometry N” value in data set [2] is 2.
